Results published in patent US20200399344A1.

What was measured:
[1] = biological target: hCD2 expressed on CHO-K1/hCD2 cells (human) (UniProt P06729); assay: flow cytometry, isotype control stain of Cho-K1-Luc hCD2 clone 4; unstained cells 362
[2] = biological target: hCD28 expressed on CHO-K1/hCD28 cells (human) (UniProt P10747); assay: flow cytometry, isotype control stain of CHO-K1/hCD28 cells (table row 1); unstained cells 130
[3] = biological target: m2B4 expressed on CHO-K1/m2B4 cells (mouse) (UniProt Q07763); assay: flow cytometry, isotype control stain of Cho-K1-NFkB-Luc-m2B4 clone C2; unstained cells 2.00
Sequence of m2B4 expressed on CHO-K1/m2B4 cells (mouse) (Q07763 20-397): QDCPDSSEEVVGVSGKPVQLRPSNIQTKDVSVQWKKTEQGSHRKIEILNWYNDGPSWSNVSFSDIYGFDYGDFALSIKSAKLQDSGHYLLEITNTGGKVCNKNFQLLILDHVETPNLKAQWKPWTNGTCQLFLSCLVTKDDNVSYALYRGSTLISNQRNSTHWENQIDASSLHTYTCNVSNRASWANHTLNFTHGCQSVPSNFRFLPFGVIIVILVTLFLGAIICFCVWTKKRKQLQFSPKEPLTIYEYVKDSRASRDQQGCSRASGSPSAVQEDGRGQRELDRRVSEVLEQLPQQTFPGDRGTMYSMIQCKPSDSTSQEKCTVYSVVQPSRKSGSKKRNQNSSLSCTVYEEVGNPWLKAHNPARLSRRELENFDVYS

[4] = biological target: mCD28 expressed on CHO-K1/mCD28 cells (mouse) (UniProt P31041); assay: flow cytometry, isotype control stain (sample Chok1-IsotypeCD28); unstained cells 286
Sequence of mCD28 expressed on CHO-K1/mCD28 cells (mouse) (P31041 20-218): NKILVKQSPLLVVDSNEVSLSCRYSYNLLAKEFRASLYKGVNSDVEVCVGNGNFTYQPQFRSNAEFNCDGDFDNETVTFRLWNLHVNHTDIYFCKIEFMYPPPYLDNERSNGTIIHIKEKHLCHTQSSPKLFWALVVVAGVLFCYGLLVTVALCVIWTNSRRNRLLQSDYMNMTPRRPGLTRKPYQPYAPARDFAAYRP

Sequence of hCD28 expressed on CHO-K1/hCD28 cells (human) (P10747 19-220): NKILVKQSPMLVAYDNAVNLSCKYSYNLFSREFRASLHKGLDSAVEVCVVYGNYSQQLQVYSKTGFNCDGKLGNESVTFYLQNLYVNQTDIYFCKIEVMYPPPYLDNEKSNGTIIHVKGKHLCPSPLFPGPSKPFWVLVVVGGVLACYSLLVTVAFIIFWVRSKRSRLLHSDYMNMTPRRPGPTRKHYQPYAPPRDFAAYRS
Sequence of hCD2 expressed on CHO-K1/hCD2 cells (human) (P06729 25-351): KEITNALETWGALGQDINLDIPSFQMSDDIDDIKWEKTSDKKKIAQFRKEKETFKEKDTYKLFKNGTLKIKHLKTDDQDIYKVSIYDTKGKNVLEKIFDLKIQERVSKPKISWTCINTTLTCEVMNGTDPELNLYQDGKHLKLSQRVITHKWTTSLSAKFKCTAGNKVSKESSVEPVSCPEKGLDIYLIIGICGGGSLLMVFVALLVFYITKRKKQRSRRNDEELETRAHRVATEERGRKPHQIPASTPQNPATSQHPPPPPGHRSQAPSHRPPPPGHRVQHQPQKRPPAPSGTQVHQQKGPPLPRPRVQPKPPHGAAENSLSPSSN

- Geometric Mean : PE-A [1]: 1760
- Geometric Mean : PE-A [2]: 589
- Geometric Mean : PE-A [3]: 178
- Geometric Mean : PE-A [4]: 678
Substance: isotype control antibody
